The record followed here is patent US20250027068.

B1: PRT-113 (protein)
chain: MRNATEAYAKEVPHTITSVWTKGVTPPTPEQFTYYNEDVFHAPYLAHQGWYDITKTFNGKDNLLCGAATAGNMLHWWFDQNKTEIEAYLSKHPEKQKIIFNNQELFDLKAAIDTKDSQTNSQLFNYFKDKAFPNLSARQLGVMPDLVLDMFINGYYLNVFKTQSTDVNRPYQDKDKRGGIFDAVFTRGDQTKLLTARHDLKNKGLNDISDLIKQELTEGKALALSHTYANVSINHVINLWGADFNAEGNLEAIYVTDSDANASIGMKKYFVGINASGKVAISAKKIEGENIGAQVLGLFTLSSGKDIWQKLS
B2: PRT-112 (protein)
chain: MRNATEAYAKEVPHKITSVWTKGVTPLTPEQFRYNGEDVIHAPYLANQGWYDITKTFDGKDNLLCGAATAGNMLHWWFDQNKTEIEAYLKKHPEKQKIIFNNQELFDLKAAIDTKDSQTNSALFNYFKDKAFPNLSARQLGVMPDHVLDMFINGYYLNVFKTQSTDVNRPYQDKDKRGGIFDAVFTRGDQTKLLTARHDLKNKGLNEISTLIKQELTEGKALALSHTYANVSISHVINLWGADFNAEGNLEAIYVTDSDANASIGMKKYFVGVNASGKVAISAKKIEGENIGAQVLGLFTLSSGKDIWQKLS
B3: PRT-7 (protein)
chain: MANQEIRYSEETPYHVTSVWTKGVTPPANFTQGEDVFHAPYVANQGWYDITKTFNGKDDLLCGAATAGNMLHWWFDQNKDQIERYLKKHPEKQKINFNGEQMFDVKEAIDTKDSQTDSKLFEYFKEKAFPYLSTKHLGVFPDHVIDMFINGYRLSLTNHGPTPVKEGSKDPRGGIFDAVFTRGDQSKLLTSRHDFKEKNLKEISDLIKKELTEGKALGLSHTYANVRINHVINLWGADFDSNGNLKAIYVTDSDSNASIGMKKYFVGVNSAGKVAISAKEIKEDNIGAQVLGLFTLSTGQDIWEQTN
B4: PRT-9 (protein)
chain: B3 chain with D80E, K88E, D113N, T116L, N199T, G218A, T298S, E304N
B5: PRT-8 (protein)
chain: MANQEIRYSEVTPYHVTSVWTKGVTPPTNFTQGEDVFHAPYIANQGWYDITKTFNGKDDLLCGAATAGNMLHWWFDQNKDQIERYLKEHPEKQKINFNGEQMFDVKEAIDTKNSQLDSKLFEYFKEKAFPYLSTKHLGVFPDHVLDMFINGYRLSLTNHGPTPVKEGSKDPRGGIFDAVFTRGDQSKLLTSRHDFKEKNLKEISDLIKQELTEGKALGLSHTYANVRINHVINLWGADFDSNGNLEAIYVTDSDSNASIGMKKYFVGVNSAGKVAISAKEIKDDNIGAQVLGLFTLSTGQDIWNQTN
B6: PRT-111 (protein)
chain: MRNATEAYAKEVPHQITSVWTKGVTPPTPEQFRYNNEDVFHAPYLAHQGWYDITKTFNGKDNLLCGAATAGNMLHWWFDQNKTEIEAYLKKHPEKQKIIFNNQELFDLKAAIDTKDSQTNSQLFNYFRDKAFPNLSARQLGVMPDLVLDMFINGYYLNVFKTQSTDVNRPYQDKDKRGGIFDAVFTRGDQTTLLTNRHDLKNKGLNDISTLIKQELTEGKALALSHTYANVSISHVINLWGADFNAEGNLEAIYVTDSDANASIGMKKYFVGINSAGHVAISAKKIEGENIGAQVLGLFTLSSGKDIWQKLS
B7: PRT-82 (protein)
chain: MANQEIRYSEVTPSTITSVWTKGVTPPAQFIQNEDVFHAPYVANQGWYDITKTFNGKDDLLCGAATAGNMLHWWFDQNKEEIEAYLKKHPEKQKIMFGDQELLDVRKVINTKDDQTNSALFNYFKDKAFPNLSARRLGVMPDLVLDMFINGYYLNVGKTQTTDVNRTYQNKDRRGGIFDAVFTRGDQSKLLTARHDFKEKNLNEISDLIKQELTEGKALALSHTYANVSINHVINLWGADFDANGNLEAIYVTDSDSNASIGMKKYFVGVNSAGKVAISAKEIEEDNIGAQVLGLFTLSTGQDIWNKTN
B8: PRT-81 (protein)
chain: MANQEIRYSEVTPSHVTSVWTKGVTPPADFTQGEDVFHAPYVANQGWYDITKTFNGKDNLLCGAATAGNMLHWWFDQNKEQIENYLKKHPEKQKIMFGDQELLDVRKVINTKDSQTNSALFNYFRDKAFPNLSARRLGVMPDLVLDMFINGYYLNLTKTQTTDVNRTYQTKDKRGGIFDAVFTRGDQSKLLTSRHDFKEKTLKEISDLIKQELTEGKALGLSHTYANVRINHVINLWGADFDSNGNLKAIYVTDSDSNASIGMKKYFVGVNSAGKVAISAKEITEDNIGAQVLGLFTLSTGKDQWNQTN
B9: PRT-83 (protein)
chain: MANQEIRYSEETPYHVTSVWTKGVTPPEKFTQGEDVFHAPYVANQGWYDITKTFNGKDDLLCGAATAGNMLHWWFDQNKDQIEAYLSKHPEKQKIMFGDQELLDVRKAINTKDSQTNSELFNYFRDKAFPNLSARRLGVMPDLVLDMFINGYRLNVTKTQTTDVNETYQEKDKRGGIFDAVFTRGDQSKLLTSRHDFKEKTLNEISDLIKKELTEGKALGISHTYANVRINHVINLWGADFNSEGNLEAIYVTDSDSNASIGMKKYFVGVNSAGKVAISAKEIEEENIGAQVLGLFTLSTGQDIWQQTN

Numbering of substitutions follows the chain as printed.

This data set concerns the target pooled human IgG.
The protein B1 came in with an Enzyme Activity Endpoint Assay (purified): Fab'2 of 656 ng/µL, an Enzyme Activity Endpoint Assay (purified): Fc of 189 ng/µL, an Enzyme Activity Endpoint Assay (purified): IgG of 0 ng/µL and an Enzyme Activity Endpoint Assay (purified): scIgG of 0 ng/µL.

B2: the Enzyme Activity Endpoint Assay (purified): Fab'2 was 435 ng/µL, the Enzyme Activity Endpoint Assay (purified): Fc stood at 152 ng/µL, the Enzyme Activity Endpoint Assay (purified): IgG worked out at 15 ng/µL and the Enzyme Activity Endpoint Assay (purified): scIgG is 0 ng/µL.

On to B3, for which the Enzyme Activity Endpoint Assay: Fab′2 was found to be 50 ng/µL, the Enzyme Activity Endpoint Assay: Fc stood at 137 ng/µL, the Enzyme Activity Endpoint Assay: IgG worked out at 18 ng/µL and the Enzyme Activity Endpoint Assay: scIgG came out at 16 ng/µL.

For B4, the Enzyme Activity Endpoint Assay: Fab′2 worked out at 39 ng/µL, the Enzyme Activity Endpoint Assay: Fc was 103 ng/µL, the Enzyme Activity Endpoint Assay: IgG came to 21 ng/µL and the Enzyme Activity Endpoint Assay: scIgG was 32 ng/µL.

For the protein B5, the Enzyme Activity Endpoint Assay: Fab′2 amounted to 50 ng/µL, the Enzyme Activity Endpoint Assay: Fc was 127 ng/µL, the Enzyme Activity Endpoint Assay: IgG stood at 16 ng/µL and the Enzyme Activity Endpoint Assay: scIgG turned out to be 16 ng/µL.

As for B6, the Enzyme Activity Endpoint Assay (purified): Fab'2 was 328 ng/µL, the Enzyme Activity Endpoint Assay (purified): Fc amounted to 133 ng/µL, the Enzyme Activity Endpoint Assay (purified): IgG was found to be 26 ng/µL and the Enzyme Activity Endpoint Assay (purified): scIgG is 0 ng/µL.

Take B7: the Enzyme Activity Endpoint Assay (purified): Fab′2 came out at 9 ng/µL, the Enzyme Activity Endpoint Assay (purified): Fc is 67 ng/µL, the Enzyme Activity Endpoint Assay (purified): IgG came out at 15 ng/µL and the Enzyme Activity Endpoint Assay (purified): scIgG stood at 60 ng/µL.

With B8, the Enzyme Activity Endpoint Assay (purified): Fab′2 came to 14 ng/µL, the Enzyme Activity Endpoint Assay (purified): Fc was 67 ng/µL, the Enzyme Activity Endpoint Assay (purified): IgG came to 30 ng/µL and the Enzyme Activity Endpoint Assay (purified): scIgG was 56 ng/µL.

For B9, the Enzyme Activity Endpoint Assay (purified): Fab′2 was found to be 0 ng/µL, the Enzyme Activity Endpoint Assay (purified): Fc stood at 44 ng/µL, the Enzyme Activity Endpoint Assay (purified): IgG amounted to 42 ng/µL and the Enzyme Activity Endpoint Assay (purified): scIgG worked out at 40 ng/µL.
